From PMC9953004, “Scandium-44 Radiolabeled Peptide and Peptidomimetic Conjugates Targeting Neuropilin-1 Co-Receptor as Potential Tools for Cancer Diagnosis and Anti-Angiogenic Therapy” (Biomedicines, 2023)
Like-named read-outs stand apart in the source and are kept apart here. Where a SMILES comes first, the peptide text is derived from it. [ ]: non-standard residue; d: D form. The star is where a group is joined. DOTA = O=C(O)CN1CCN(CC(=O)O)CCN(CC(=O)*)CCN(CC(=O)O)CC1

Tests used:
physchem = assay type: physicochemical; settings: pH 7.4
Procedure: The lipophilicity value, defined as the decimal logarithm (logP) of the partition coefficient (P), was tested in the system of two immiscible (but saturated with each other) phases: 0.1 M PBS solution, pH 7.4, and n-octanol, in three independent experiments. Partition coefficient was determined as a ratio of radioactivity of the organic (n-octanol) and aqueous (PBS solution) phases and was shown as the mean ± SD. The lipophilicity test was carried out as follows: the tested radiocompound dissolved in 10–20 µL of PBS was incubated and intensively mixed in an equal amount of these two phases. After centrifugation, radioactivity of appropriate amounts of the separated organic (500 µL) and aqueous (100 µL) phases were measured on the Wizard gamma counter. Differences in the volume of phases taken for measurement resulted from the very low radioactivity of organic phases and were included in the calculations. Additionally, to confirm the stability of the studied radiocompounds during the experiment, the RP-HPLC analyses of the aqueous phase were performed after each lipophilicity test.

[1] = assay type: in vitro ADME, human
Procedure: (§1) Radioconjugate stability tests in 0.1 M PBS solution, 1 mM cysteine (Cys) solution, 1 mM histidine (His) solution and human serum (HS) were performed under rigorous conditions according to the procedure described in detail in our previous paper. In brief, isolated radioconjugates were dissolved in 50 µL PBS and appropriate volume of Cys, His and HS solution and then incubated at 37 °C. After the specified incubation time (depending on the half-life of a given radionuclide), which was up to 4–8 h for the ^44Sc-radiocompounds, 4 h for the ^68Ga-radiocompounds and about 6–14 days for the ^177Lu-radiocompounds, aliquots of solution were withdrawn from the mixture and the composition of the solution was analyzed on RP-HPLC in System 3 or 4 with gamma detection. The concentrations of Cys and His solutions were about 1000 times higher than that of the studied radiocompound. In the case of the radioconjugate stability study in HS, the concentration of the radiocompound was a maximum of 2–25 nmol/mL in 100% human serum. After incubation, the protein components were precipitated with a 2.5-fold volume excess of ethanol prior to RP-HPLC analysis, and then both the supernatant and precipitate radioactivity were measured with a Wizard gamma counter. The percentage of radioactivity remaining in the supernatant and bound by the precipitated serum protein components was calculated as the ratio of the radioactivity of the supernatant or the precipitate, respectively, to the sum of the radioactivity of the supernatant and the precipitate.

[2] = assay type: physicochemical; settings: pH 7.4
Procedure: as §1

[3] = pH 7.4; cited from earlier work

Compound | logP ± SD (physchem) | stability in human serum [1] | stability in PBS buffer [2] | logP ± SD [3]
CC(C)C[C@@H](NC(=O)[C@H]1CCCN1C(=O)[C@H]1CCCN1C(=O)[C@H](N)CCCNC(=N)N)C(=O)N[C@H](Cc1c[nH]c2ccccc12)C(=O)N[C@@H](C(=O)N[C@H](C)C(=O)N[C@H](CCCCNC(=O)CN1CCN(CC(=O)O)CCN(CC(=O)O)CCN(CC(=O)O)CC1)C(=O)O)[C@H](C)O [^68Ga-3, [^68Ga]^DR7A-^DLys(DOTA-Ga), metal not drawn] (H-[dR][dP][dP][dL][dW][dT][dA][dK](DOTA)-OH) | −4.11 ± 0.06 | insufficient stability | complete stability | 
CC(C)C[C@H](NC(=O)[C@H](Cc1c[nH]c2ccccc12)NC(=O)[C@@H](NC(=O)[C@H](C)NC(=O)[C@@H](N)CCCCNC(=O)CN1CCN(CC(=O)O)CCN(CC(=O)O)CCN(CC(=O)O)CC1)[C@@H](C)O)C(=O)N1CCC[C@H]1C(=O)N1CCC[C@H]1C(=O)N[C@@H](CCCNC(=N)N)C(=O)O [^177Lu-1bis, [^177Lu]Lys(DOTA-Lu)-A7R, metal not drawn] (H-K(DOTA)ATWLPPR-OH) | −4.45 ± 0.03 | insufficient stability | complete stability | 
CC(C)C[C@@H](NC(=O)[C@H]1CCCN1C(=O)[C@H]1CCCN1C(=O)[C@H](N)CCCNC(=N)N)C(=O)N[C@H](Cc1c[nH]c2ccccc12)C(=O)N[C@@H](C(=O)N[C@H](C)C(=O)N[C@H](CCCCNC(=O)CN1CCN(CC(=O)O)CCN(CC(=O)O)CCN(CC(=O)O)CC1)C(=O)O)[C@H](C)O [^177Lu-3, [^177Lu]^DR7A-^DLys(DOTA-Lu), metal not drawn] (H-[dR][dP][dP][dL][dW][dT][dA][dK](DOTA)-OH) | −4.48 ± 0.05 | insufficient stability | complete stability | 
[^68Ga]Ga-DOTA-Ahx-A7R [^68Ga-1] |  |  |  | −3.92 ± 0.03
[^68Ga]Lys(hArg)-Dab(Ahx-DOTA-Ga)-Pro-Arg [^68Ga-2] |  |  |  | −4.57 ± 0.05
[^177Lu]Lu-DOTA-Ahx-A7R [^177Lu-1] |  |  |  | −3.40 ± 0.14
[^177Lu]Lys(hArg)-Dab(Ahx-DOTA-Lu)-Pro-Arg [^177Lu-2] |  |  |  | −3.75 ± 0.08
